{"source": "paper PMC6297349", "about": "“The ASCIZ-DYNLL1 axis promotes 53BP1-dependent non-homologous end joining and PARP inhibitor sensitivity” (Nature Communications, 2018)", "target": "the molecule itself", "assay": "SEC; equal concentrations of TALON IMAC eluate fractionated over a Superdex S200 column (Supplementary Fig. 2a)"}
{"protein": "Smt3-His6-tagged wild type 53BP1 fragment (amino acids 1131–1292) (domain or fragment, UniProt Q12888 1131-1292, looked up, No cleavage of the tags is described; the IMAC eluate went onto the Superdex S200 column; also called LC8-OD; source: E. coli BL21(DE3), pET-17b, purified (TALON IMAC column)) GRSTNKENPSKALIERPSQNNIGIQTMECSLRVPETVSAATQTIKNVCEQGTSTVDQNFGKQDATVQTERGSGEKPVSAPGDDTESLHSQGEEEFDMPQPPHGHVLHRHMRTIREVRTLVTRVITDVYYVDGTEVERKVTEETEEPIVECQECETEVSPSQT", "values": [{"measurement": "binding result", "value": "binds"}]}
